Assay results taken from patent US12630600B2 (MEDIMMUNE LIMITED, priority 2022, dated 2026).
Starred links: 1 amine or outer side, 2 acyl side, 3 side chain; linkers in the order of their positions; H or OH if unused. Non-standard residues stand in square brackets, D forms with d. Groups on a side chain read outwards from the residue. No end group written: not given here. *: point of attachment. C20 diacid = O=C(O)CCCCCCCCCCCCCCCCCCC(=O)*; C18 diacid = O=C(O)CCCCCCCCCCCCCCCCC(=O)*; γGlu = O=C(O)[C@H](CCC(=O)[*:2])N[*:1]; αMeF = C[C@](N)(Cc1ccccc1)C(=O)O; AEEA = NCCOCCOCC(=O)O; Aib = CC(C)(N)C(=O)O

B1: Peptide 145 (peptide)
peptide: H[Aib]QGTFTSDVSK[αMeF]LDSK([AEEA-AEEA-γGlu-C18 diacid])RAQDFVRWLASRGI-OH
modifications: N-terminus assumed
SMILES: CC[C@H](C)[C@H](NC(=O)CNC(=O)[C@H](CCCNC(=N)N)NC(=O)[C@H](CO)NC(=O)[C@H](C)NC(=O)[C@H](CC(C)C)NC(=O)[C@H](Cc1c[nH]c2ccccc12)NC(=O)[C@H](CCCNC(=N)N)NC(=O)[C@@H](NC(=O)[C@H](Cc1ccccc1)NC(=O)[C@H](CC(=O)O)NC(=O)[C@H](CCC(N)=O)NC(=O)[C@H](C)NC(=O)[C@H](CCCNC(=N)N)NC(=O)[C@H](CCCCNC(=O)COCCOCCNC(=O)COCCOCCNC(=O)CC[C@H](NC(=O)CCCCCCCCCCCCCCCCC(=O)O)C(=O)O)NC(=O)[C@H](CO)NC(=O)[C@H](CC(=O)O)NC(=O)[C@H](CC(C)C)NC(=O)[C@](C)(Cc1ccccc1)NC(=O)[C@H](CCCCN)NC(=O)[C@H](CO)NC(=O)[C@@H](NC(=O)[C@H](CC(=O)O)NC(=O)[C@H](CO)NC(=O)[C@@H](NC(=O)[C@H](Cc1ccccc1)NC(=O)[C@@H](NC(=O)CNC(=O)[C@H](CCC(N)=O)NC(=O)C(C)(C)NC(=O)[C@@H](N)Cc1c[nH]cn1)[C@@H](C)O)[C@@H](C)O)C(C)C)C(C)C)C(=O)O
B2: Peptide 148 (peptide)
peptide: H[Aib]QGTFTSDVSK[αMeF]LDSK([AEEA-AEEA-γGlu-C18 diacid])RAQDFVRWIAE[Aib]G-OH
modifications: N-terminus assumed
SMILES: CC[C@H](C)[C@H](NC(=O)[C@H](Cc1c[nH]c2ccccc12)NC(=O)[C@H](CCCNC(=N)N)NC(=O)[C@@H](NC(=O)[C@H](Cc1ccccc1)NC(=O)[C@H](CC(=O)O)NC(=O)[C@H](CCC(N)=O)NC(=O)[C@H](C)NC(=O)[C@H](CCCNC(=N)N)NC(=O)[C@H](CCCCNC(=O)COCCOCCNC(=O)COCCOCCNC(=O)CC[C@H](NC(=O)CCCCCCCCCCCCCCCCC(=O)O)C(=O)O)NC(=O)[C@H](CO)NC(=O)[C@H](CC(=O)O)NC(=O)[C@H](CC(C)C)NC(=O)[C@](C)(Cc1ccccc1)NC(=O)[C@H](CCCCN)NC(=O)[C@H](CO)NC(=O)[C@@H](NC(=O)[C@H](CC(=O)O)NC(=O)[C@H](CO)NC(=O)[C@@H](NC(=O)[C@H](Cc1ccccc1)NC(=O)[C@@H](NC(=O)CNC(=O)[C@H](CCC(N)=O)NC(=O)C(C)(C)NC(=O)[C@@H](N)Cc1c[nH]cn1)[C@@H](C)O)[C@@H](C)O)C(C)C)C(C)C)C(=O)N[C@@H](C)C(=O)N[C@@H](CCC(=O)O)C(=O)NC(C)(C)C(=O)NCC(=O)O
B3: Peptide 146 (peptide)
peptide: H[Aib]QGTFTSDVSK[αMeF]LDSK([AEEA-AEEA-γGlu-C18 diacid])RAQDFVRWLASR-OH
modifications: N-terminus assumed
SMILES: CC(C)C[C@H](NC(=O)[C@H](Cc1c[nH]c2ccccc12)NC(=O)[C@H](CCCNC(=N)N)NC(=O)[C@@H](NC(=O)[C@H](Cc1ccccc1)NC(=O)[C@H](CC(=O)O)NC(=O)[C@H](CCC(N)=O)NC(=O)[C@H](C)NC(=O)[C@H](CCCNC(=N)N)NC(=O)[C@H](CCCCNC(=O)COCCOCCNC(=O)COCCOCCNC(=O)CC[C@H](NC(=O)CCCCCCCCCCCCCCCCC(=O)O)C(=O)O)NC(=O)[C@H](CO)NC(=O)[C@H](CC(=O)O)NC(=O)[C@H](CC(C)C)NC(=O)[C@](C)(Cc1ccccc1)NC(=O)[C@H](CCCCN)NC(=O)[C@H](CO)NC(=O)[C@@H](NC(=O)[C@H](CC(=O)O)NC(=O)[C@H](CO)NC(=O)[C@@H](NC(=O)[C@H](Cc1ccccc1)NC(=O)[C@@H](NC(=O)CNC(=O)[C@H](CCC(N)=O)NC(=O)C(C)(C)NC(=O)[C@@H](N)Cc1c[nH]cn1)[C@@H](C)O)[C@@H](C)O)C(C)C)C(C)C)C(=O)N[C@@H](C)C(=O)N[C@@H](CO)C(=O)N[C@@H](CCCNC(=N)N)C(=O)O
B4: Peptide 147 (peptide)
peptide: H[Aib]QGTFTSDVSK[αMeF]LDSK([AEEA-AEEA-γGlu-C18 diacid])RAQDFVRWLEA[Aib]G-OH
modifications: N-terminus assumed
SMILES: CC(C)C[C@H](NC(=O)[C@H](Cc1c[nH]c2ccccc12)NC(=O)[C@H](CCCNC(=N)N)NC(=O)[C@@H](NC(=O)[C@H](Cc1ccccc1)NC(=O)[C@H](CC(=O)O)NC(=O)[C@H](CCC(N)=O)NC(=O)[C@H](C)NC(=O)[C@H](CCCNC(=N)N)NC(=O)[C@H](CCCCNC(=O)COCCOCCNC(=O)COCCOCCNC(=O)CC[C@H](NC(=O)CCCCCCCCCCCCCCCCC(=O)O)C(=O)O)NC(=O)[C@H](CO)NC(=O)[C@H](CC(=O)O)NC(=O)[C@H](CC(C)C)NC(=O)[C@](C)(Cc1ccccc1)NC(=O)[C@H](CCCCN)NC(=O)[C@H](CO)NC(=O)[C@@H](NC(=O)[C@H](CC(=O)O)NC(=O)[C@H](CO)NC(=O)[C@@H](NC(=O)[C@H](Cc1ccccc1)NC(=O)[C@@H](NC(=O)CNC(=O)[C@H](CCC(N)=O)NC(=O)C(C)(C)NC(=O)[C@@H](N)Cc1c[nH]cn1)[C@@H](C)O)[C@@H](C)O)C(C)C)C(C)C)C(=O)N[C@@H](CCC(=O)O)C(=O)N[C@@H](C)C(=O)NC(C)(C)C(=O)NCC(=O)O
B5: Peptide 149 (peptide)
peptide: H[Aib]QGTFTSDVSK[αMeF]LDSK([AEEA-AEEA-γGlu-C18 diacid])RAQDFVRWVVE[Aib]G-OH
modifications: N-terminus assumed
SMILES: CC(C)C[C@H](NC(=O)[C@](C)(Cc1ccccc1)NC(=O)[C@H](CCCCN)NC(=O)[C@H](CO)NC(=O)[C@@H](NC(=O)[C@H](CC(=O)O)NC(=O)[C@H](CO)NC(=O)[C@@H](NC(=O)[C@H](Cc1ccccc1)NC(=O)[C@@H](NC(=O)CNC(=O)[C@H](CCC(N)=O)NC(=O)C(C)(C)NC(=O)[C@@H](N)Cc1c[nH]cn1)[C@@H](C)O)[C@@H](C)O)C(C)C)C(=O)N[C@@H](CC(=O)O)C(=O)N[C@@H](CO)C(=O)N[C@@H](CCCCNC(=O)COCCOCCNC(=O)COCCOCCNC(=O)CC[C@H](NC(=O)CCCCCCCCCCCCCCCCC(=O)O)C(=O)O)C(=O)N[C@@H](CCCNC(=N)N)C(=O)N[C@@H](C)C(=O)N[C@@H](CCC(N)=O)C(=O)N[C@@H](CC(=O)O)C(=O)N[C@@H](Cc1ccccc1)C(=O)N[C@H](C(=O)N[C@@H](CCCNC(=N)N)C(=O)N[C@@H](Cc1c[nH]c2ccccc12)C(=O)N[C@H](C(=O)N[C@H](C(=O)N[C@@H](CCC(=O)O)C(=O)NC(C)(C)C(=O)NCC(=O)O)C(C)C)C(C)C)C(C)C
B6: Peptide 205 (peptide)
peptide: H[Aib]QGT[αMeF]TSDVSK[αMeF]LDSRAAK([AEEA-AEEA-γGlu-C18 diacid])DFVQWIANT-NH2
modifications: N-terminus assumed
SMILES: CC[C@H](C)[C@H](NC(=O)[C@H](Cc1c[nH]c2ccccc12)NC(=O)[C@H](CCC(N)=O)NC(=O)[C@@H](NC(=O)[C@H](Cc1ccccc1)NC(=O)[C@H](CC(=O)O)NC(=O)[C@H](CCCCNC(=O)COCCOCCNC(=O)COCCOCCNC(=O)CC[C@H](NC(=O)CCCCCCCCCCCCCCCCC(=O)O)C(=O)O)NC(=O)[C@H](C)NC(=O)[C@H](C)NC(=O)[C@H](CCCNC(=N)N)NC(=O)[C@H](CO)NC(=O)[C@H](CC(=O)O)NC(=O)[C@H](CC(C)C)NC(=O)[C@](C)(Cc1ccccc1)NC(=O)[C@H](CCCCN)NC(=O)[C@H](CO)NC(=O)[C@@H](NC(=O)[C@H](CC(=O)O)NC(=O)[C@H](CO)NC(=O)[C@@H](NC(=O)[C@](C)(Cc1ccccc1)NC(=O)[C@@H](NC(=O)CNC(=O)[C@H](CCC(N)=O)NC(=O)C(C)(C)NC(=O)[C@@H](N)Cc1c[nH]cn1)[C@@H](C)O)[C@@H](C)O)C(C)C)C(C)C)C(=O)N[C@@H](C)C(=O)N[C@@H](CC(N)=O)C(=O)N[C@H](C(N)=O)[C@@H](C)O
B7: Peptide 233 (peptide)
peptide: H[Aib]HGS[αMeF]TSDVSK[αMeF]LDSRAAK([AEEA-AEEA-γGlu-γGlu-C20 diacid])D[αMeF]VQ[Aib]IANTGG-NH2
modifications: N-terminus assumed
SMILES: CC[C@H](C)[C@H](NC(=O)C(C)(C)NC(=O)[C@H](CCC(N)=O)NC(=O)[C@@H](NC(=O)[C@](C)(Cc1ccccc1)NC(=O)[C@H](CC(=O)O)NC(=O)[C@H](CCCCNC(=O)COCCOCCNC(=O)COCCOCCNC(=O)CC[C@H](NC(=O)CC[C@H](NC(=O)CCCCCCCCCCCCCCCCCCC(=O)O)C(=O)O)C(=O)O)NC(=O)[C@H](C)NC(=O)[C@H](C)NC(=O)[C@H](CCCNC(=N)N)NC(=O)[C@H](CO)NC(=O)[C@H](CC(=O)O)NC(=O)[C@H](CC(C)C)NC(=O)[C@](C)(Cc1ccccc1)NC(=O)[C@H](CCCCN)NC(=O)[C@H](CO)NC(=O)[C@@H](NC(=O)[C@H](CC(=O)O)NC(=O)[C@H](CO)NC(=O)[C@@H](NC(=O)[C@](C)(Cc1ccccc1)NC(=O)[C@H](CO)NC(=O)CNC(=O)[C@H](Cc1c[nH]cn1)NC(=O)C(C)(C)NC(=O)[C@@H](N)Cc1c[nH]cn1)[C@@H](C)O)C(C)C)C(C)C)C(=O)N[C@@H](C)C(=O)N[C@@H](CC(N)=O)C(=O)N[C@H](C(=O)NCC(=O)NCC(N)=O)[C@@H](C)O

target: human GLP-1 receptor (human, UniProt P43220); assay: cell-based or functional assay

| cAMP production, hGLP-1R EC50 (pM) | Binder |
| --- | --- |
| 22.6 pM | B1 |
| 40.2 pM | B2 |
| 24.6 pM | B3 |
| 15.3 pM | B4 |
| 8.71 pM | B5 |

target: human glucagon receptor (human, UniProt P47871); assay: cell-based or functional assay

| cAMP production, hGluc-R EC50 (pM) | Binder |
| --- | --- |
| 4590 pM | B1 |
| 568 pM | B2 |
| 1630 pM | B3 |
| 43.5 pM | B4 |
| 2650 pM | B5 |

target: human GLP-1 receptor (human, UniProt P43220); assay: cell-based or functional assay; remark: another data set of the same source

| hGLP-1R EC50 (pM) | Binder |
| --- | --- |
| 29.9 pM | B6 |
| 601 pM | H[Aib]HGS[αMeF]TSDVSK[αMeF]LDSR[Aib]AK([AEEA-AEEA-γGlu-γGlu-C18 diacid])D[αMeF]VESIANT-NH2 [Peptide 250] |

target: human glucagon receptor (human, UniProt P47871); assay: cell-based or functional assay; remark: another data set of the same source

| hGluc-R EC50 (pM) | Binder |
| --- | --- |
| 8.14 pM | B6 |
| 407 pM | B7 |
